According to US20150266922A1 (GEORG AUGUST UNIVERSITAT GOTTINGEN STIFTUNG OFFENTLICHEN …, published 2015):

Molecular target: T1, Dipeptidyl peptidase 9 (DPP9), recombinant wild-type (human, UniProt Q86TI2 1-863)
Test: cell-based or functional assay

T1 sequence (Q86TI2 other isoform, or with tags, fused parts or gaps limits assumed, form in doubt): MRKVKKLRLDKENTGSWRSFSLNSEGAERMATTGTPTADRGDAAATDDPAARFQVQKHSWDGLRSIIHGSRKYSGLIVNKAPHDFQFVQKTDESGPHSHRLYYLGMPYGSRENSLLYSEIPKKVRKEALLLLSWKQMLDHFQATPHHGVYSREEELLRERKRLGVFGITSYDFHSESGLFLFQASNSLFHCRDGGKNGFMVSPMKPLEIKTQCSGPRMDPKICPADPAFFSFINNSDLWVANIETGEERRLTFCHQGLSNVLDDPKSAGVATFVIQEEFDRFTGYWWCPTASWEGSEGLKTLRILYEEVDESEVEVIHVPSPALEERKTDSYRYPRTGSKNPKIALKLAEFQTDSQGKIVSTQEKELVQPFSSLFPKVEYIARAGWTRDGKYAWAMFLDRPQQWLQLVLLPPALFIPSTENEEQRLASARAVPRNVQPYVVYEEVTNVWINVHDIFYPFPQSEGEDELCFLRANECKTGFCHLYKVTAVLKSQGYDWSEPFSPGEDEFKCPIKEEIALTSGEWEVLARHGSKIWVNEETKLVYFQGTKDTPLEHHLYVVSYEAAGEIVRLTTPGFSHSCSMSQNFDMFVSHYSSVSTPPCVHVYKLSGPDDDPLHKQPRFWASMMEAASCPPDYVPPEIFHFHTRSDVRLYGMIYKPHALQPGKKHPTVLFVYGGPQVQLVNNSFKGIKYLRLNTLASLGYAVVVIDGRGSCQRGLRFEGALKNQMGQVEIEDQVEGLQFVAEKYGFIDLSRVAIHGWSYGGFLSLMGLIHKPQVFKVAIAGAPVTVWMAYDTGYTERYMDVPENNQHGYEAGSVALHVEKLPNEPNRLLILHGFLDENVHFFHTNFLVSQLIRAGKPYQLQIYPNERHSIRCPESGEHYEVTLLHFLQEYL

Row | Binder | % DPP9 activity (Mean), 14 µM peptide
1 | FLIEGQRI [FLIEGQRI (SEQ ID NO: 36)] | 49%
2 | SLRFLFEGQRIADNR [SLRFLFEGQRIADNR (SEQ ID NO: 16)] | 56.4%
3 | SLRFLFDGQRIADNH [SLRFLFDGQRIADNH (SEQ ID NO: 17)] | 74.9%
4 | SLRFLAEGQRIADNH [SLRFLAEGQRIADNH (SEQ ID NO: 21)] | 72.9%
5 | SLRFLFEAQRIADNH [SLRFLFEAQRIADNH (SEQ ID NO: 22)] | 19.5%
6 | SLRFLWEGQRIADNH [SLRFLWEGQRIADNH (SEQ ID NO: 18)] | 26.9%
7 | SLRFLVEGQRIADNH [SLRFLVEGQRIADNH (SEQ ID NO: 19)] | 28.6%

Next, values leading:

Row | % DPP9 activity (Mean), 14 µM peptide | Binder
8 | 18.4% | SLRFLFEGQR [… (SEQ ID NO: 28)]
9 | 29.1% | SLRFLFEGQRI [… (SEQ ID NO: 27)]
10 | 55.9% | FLFEGQRI [… (SEQ ID NO: 33)]
11 | 38.4% | FLFEGQRIA [… (SEQ ID NO: 32)]
12 | 66.4% | RFLFEGQRIAD [… (SEQ ID NO: 31)]
13 | 79.8% | RFLFEGQRIADNH [… (SEQ ID NO: 23)]
14 | 42.7% | LFEGQRIADNH [… (SEQ ID NO: 24)]

Molecular target: T1, Dipeptidyl peptidase 9 (DPP9), …
Test: cell-based or functional assay
Remark: another data set of the same source

Row | Binder | % DPP9 activity (Mean), 10 µM peptide
15 | RRRRSLRFLYAG [RRRRSLRFLYAG (SEQ ID NO: 47)] | 91.5%
16 | AAASLRFLYEG [AAASLRFLYEG (SEQ ID NO: 44)] | 91.2%
17 | SLRFLFAG [SLRFLFAG (SEQ ID NO: 39)] | 15.3%
18 | RRRRSLRFLFEG [RRRRSLRFLFEG (SEQ ID NO: 46)] | 92.2%
19 | SLRFLYAG [SLRFLYAG (SEQ ID NO: 40)] | 16.3%

The remaining lines, values ahead:

Row | % DPP9 activity (Mean), 10 µM peptide | Binder
20 | 29.2% | TLRFLFEG [TLRFLFEG (SEQ ID NO: 41)]
21 | 23.9% | SLRFLYEGAAA [SLRFLYEGAAA (SEQ ID NO: 45)]

Molecular target: T2, SUMO1 (UniProt P63165 1-97, limits assumed)
T2 construct: Immobilized on CnBr Sepharose beads or ELISA wells, or free in solution; also called S1
T2 sequence (P63165 1-97 limits assumed): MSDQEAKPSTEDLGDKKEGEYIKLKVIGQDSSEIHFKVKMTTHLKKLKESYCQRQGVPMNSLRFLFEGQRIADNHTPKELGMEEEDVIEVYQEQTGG
Test: competition ELISA: SUMO1 pre-incubated with the peptide, then added to immobilized DPP9
Method: ELISA: A 96 well plate (Immuno 96 MicroWell™ Solid Plates, Nunc) was coated with 600 ng purified recombinant proteins per well in 100 μl TB, overnight at 4° C. Next, wells were blocked with ELISA buffer (TB supplemented with 3% BSA) for 1 h at room temperature. After blocking, recombinant interacting proteins were added to the wells. Following 2 hours of incubation at 25° C., wells were washed four times. […] After incubation with secondary antibodies, wells were washed with ELISA buffer and ddH20. Reactions were developed with TMB-substrate reagent set from BD (OptEIA substrate). Absorbance was measured at 420 nm on an Appliskan microplate fluorimeter (Thermo Scientific) and the Skanit software. Experiments were performed at least three times, in triplicates.

Row | binding result | Binder
22 | binds | VEVIHVPSPALEERKTDSYR (also called peptide corresponding to the extended arm of DPP9) [DPP9-arm peptide (285-VEVIHVPSPALEERKTDSYR-304)]
